Measurements: publication PMC5441565 (Nature, 2017)

How the values were obtained:
[1] = biological target: mCherry-LacI-TIRR (human) (UniProt Q9BRJ7); experiment: LacO/LacI tethering
GFP-LacI-53BP1 (human) = GFP-LacI-53BP1 (human) (UniProt Q12888); experiment: LacO/LacI tethering
[2] = biological target: TIRR-His (recombinant TIRR) (human, UniProt Q9BRJ7 1-211); experiment: ITC
Sequence of TIRR-His (recombinant TIRR) (Q9BRJ7 whole entry): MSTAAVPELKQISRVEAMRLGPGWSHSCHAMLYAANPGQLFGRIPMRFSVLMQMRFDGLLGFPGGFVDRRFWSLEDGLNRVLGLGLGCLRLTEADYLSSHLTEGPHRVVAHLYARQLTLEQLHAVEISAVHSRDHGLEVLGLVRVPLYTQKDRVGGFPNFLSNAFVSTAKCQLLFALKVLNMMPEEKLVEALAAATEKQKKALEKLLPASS

Sequence of mCherry-LacI-TIRR (human) (Q9BRJ7 whole entry): as above
Sequence of GFP-LacI-53BP1 (human) (Q12888 whole entry): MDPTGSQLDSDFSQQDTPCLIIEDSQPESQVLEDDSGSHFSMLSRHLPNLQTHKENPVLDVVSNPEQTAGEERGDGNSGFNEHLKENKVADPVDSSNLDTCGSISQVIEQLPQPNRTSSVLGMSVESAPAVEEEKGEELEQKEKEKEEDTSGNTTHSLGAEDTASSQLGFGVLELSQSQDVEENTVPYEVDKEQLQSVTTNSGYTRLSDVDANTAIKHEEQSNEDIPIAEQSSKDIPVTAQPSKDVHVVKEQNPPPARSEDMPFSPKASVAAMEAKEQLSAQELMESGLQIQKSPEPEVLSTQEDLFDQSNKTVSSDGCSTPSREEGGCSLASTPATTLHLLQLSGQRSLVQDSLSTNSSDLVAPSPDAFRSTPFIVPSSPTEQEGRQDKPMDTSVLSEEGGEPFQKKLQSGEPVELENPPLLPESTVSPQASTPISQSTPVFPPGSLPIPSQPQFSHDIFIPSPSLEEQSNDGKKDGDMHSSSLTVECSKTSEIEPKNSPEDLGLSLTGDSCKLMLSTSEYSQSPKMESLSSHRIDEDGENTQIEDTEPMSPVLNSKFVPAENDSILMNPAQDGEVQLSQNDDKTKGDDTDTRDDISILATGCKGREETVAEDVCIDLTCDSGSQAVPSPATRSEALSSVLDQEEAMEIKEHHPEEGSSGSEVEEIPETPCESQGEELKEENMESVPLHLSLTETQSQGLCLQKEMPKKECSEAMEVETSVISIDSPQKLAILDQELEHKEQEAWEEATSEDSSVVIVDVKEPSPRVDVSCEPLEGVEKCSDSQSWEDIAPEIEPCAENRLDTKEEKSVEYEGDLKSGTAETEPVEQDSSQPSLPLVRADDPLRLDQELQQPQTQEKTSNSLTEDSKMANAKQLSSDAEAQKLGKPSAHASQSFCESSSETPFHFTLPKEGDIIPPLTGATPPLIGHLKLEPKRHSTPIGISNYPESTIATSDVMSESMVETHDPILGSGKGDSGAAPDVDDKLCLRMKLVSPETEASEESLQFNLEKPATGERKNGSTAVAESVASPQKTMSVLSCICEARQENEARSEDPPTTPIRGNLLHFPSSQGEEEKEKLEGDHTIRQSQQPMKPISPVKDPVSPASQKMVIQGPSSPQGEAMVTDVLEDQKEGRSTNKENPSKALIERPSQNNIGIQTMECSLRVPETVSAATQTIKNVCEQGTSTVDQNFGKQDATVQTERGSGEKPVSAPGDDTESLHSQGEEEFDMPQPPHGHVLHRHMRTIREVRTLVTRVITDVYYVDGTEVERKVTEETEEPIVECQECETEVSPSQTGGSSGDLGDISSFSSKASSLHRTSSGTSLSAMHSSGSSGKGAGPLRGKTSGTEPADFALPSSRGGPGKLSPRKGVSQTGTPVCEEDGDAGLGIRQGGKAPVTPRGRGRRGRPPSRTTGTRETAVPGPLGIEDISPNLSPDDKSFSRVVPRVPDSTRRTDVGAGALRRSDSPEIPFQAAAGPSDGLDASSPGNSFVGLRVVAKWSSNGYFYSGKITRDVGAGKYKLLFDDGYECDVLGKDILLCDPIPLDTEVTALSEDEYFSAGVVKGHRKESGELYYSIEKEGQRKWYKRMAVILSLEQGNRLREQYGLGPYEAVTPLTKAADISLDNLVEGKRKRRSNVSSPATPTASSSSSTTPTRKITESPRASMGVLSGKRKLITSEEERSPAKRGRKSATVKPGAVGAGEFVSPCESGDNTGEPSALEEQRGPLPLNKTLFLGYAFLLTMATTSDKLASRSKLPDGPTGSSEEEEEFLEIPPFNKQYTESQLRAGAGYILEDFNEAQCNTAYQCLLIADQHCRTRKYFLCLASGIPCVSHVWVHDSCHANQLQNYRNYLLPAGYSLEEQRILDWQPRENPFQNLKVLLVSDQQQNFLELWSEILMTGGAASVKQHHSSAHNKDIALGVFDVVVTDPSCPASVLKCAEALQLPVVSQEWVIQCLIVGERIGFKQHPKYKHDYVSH

## 53BP1 (P53-binding protein 1), endogenous (from UniProt Q12888 1-1972) (natural protein)
[1]
  percent of cells with co-localisation on the LacO array (% of the cells): 57.5

## mCherry-TIRR (from UniProt Q9BRJ7 1-211) (natural protein)
GFP-LacI-53BP1 (human)
  percent of cells with co-localisation on the LacO array (% of the cells): 72

B1: 53BP1 tandem Tudor domain (for ITC and NMR) (domain or fragment)
chain: NSFVGLRVVAKWSSNGYFYSGKITRDVGAGKYKLLFDDGYECDVLGKDILLCDPIPLDTEVTALSEDEYFSAGVVKGHRKESGELYYSIEKEGQRKWYKRMAVILSLEQGNRLREQYGLG
modifications: 15N-labelled for NMR; limits from PDB 2G3R (GHM tag remnant left out)
[2]
  Kd: 790 nM
  stoichiometry N: 1
